Reference: paper PMC11565477 (FASEB journal : official publication of the Federation of …, 2021)
Values joined by “and” are separate entries in the source; they are usually repeats but may differ in a detail not shown here. Identical values can stand only once.

B1: purified HA-C1QL3 (pEB Multi Neo HA-C1ql3-IRES-GFP) (natural protein, mouse, UniProt Q9ESN4 21-255, looked up)
chain: HYEMLGTCRMVCDPYGGTKAPSTAATPDRGLMQSLPTFIQGPKGEAGRPGKAGPRGPPGEPGPPGPVGPPGEKGEPGRQGLPGPPGAPGLNAAGAISAATYSTVPKIAFYAGLKRQHEGYEVLKFDDVVTNLGNHYDPTTGKFTCSIPGIYFFTYHVLMRGGDGTSMWADLCKNNQVRASAIAQDADQNYDYASNSVVLHLEPGDEVYIKLDGGKAHGGNNNKYSTFSGFIIYAD
B2: purified NPTX1-flag-strep (pEB Multi Neo Nptx1-flag-TEV-strep-IRES-GFP, plasmid #4) (natural protein, mouse, UniProt Q62443 23-432, looked up)
chain: QDFGPTRFICTSVPVDADMCAASVAAGGAEELRSNVLQLRETVLQQKETILSQKETIRELTTKLGRCESQSTLDSGPGEARSGGGRKQPGSGKNTMGDLSRTPAAETLSQLGQTLQSLKTRLENLEQYSRLNSSSQTNSLKDLLQSKIDDLERQVLSRVNTLEEGKGGPKNDTEERAKIESALTSLHQRISELEKGQKDNRPGDKFQLTFPLRTNYMYAKVKKSLPEMYAFTVCMWLKSSAAPGVGTPFSYAVPGQANELVLIEWGNNPMEILINDKVAKLPFVINDGKWHHICVTWTTRDGVWEAYQDGTQGGNGENLAPYHPIKPQGVLVLGQEQDTLGGGFDATQAFVGELAHFNIWDRKLTPGEVYNLATCSSKALSGNVIAWAESQIEIFGGATKWTFEACRQIN
B3: purified NPTX1-flag (pEB Multi Neo Nptx1-flag-IRES-GFP, plasmid #3) (natural protein, mouse, UniProt Q62443 23-432, looked up)
chain: B2 chain

Legend:
native gel or EMSA = target: the molecule itself; test: native gel or EMSA
[1] = target: B3; test: immunostaining of cells or tissue
SEC = target: the molecule itself; test: SEC

Binder | stoichiometry N (native gel or EMSA) | binding result [1] | stoichiometry N (SEC)
B1 | 6 and 18 | binds | 
B2 |  |  | ~15
B3 | 15 |  | 
